The record followed here is patent US20200399394A1 (published 2020).

First the molecules themselves.
T1: human CD39 (ectonucleoside triphosphate diphosphohydrolase 1) (UniProt P49961 1-510)
T1 chain: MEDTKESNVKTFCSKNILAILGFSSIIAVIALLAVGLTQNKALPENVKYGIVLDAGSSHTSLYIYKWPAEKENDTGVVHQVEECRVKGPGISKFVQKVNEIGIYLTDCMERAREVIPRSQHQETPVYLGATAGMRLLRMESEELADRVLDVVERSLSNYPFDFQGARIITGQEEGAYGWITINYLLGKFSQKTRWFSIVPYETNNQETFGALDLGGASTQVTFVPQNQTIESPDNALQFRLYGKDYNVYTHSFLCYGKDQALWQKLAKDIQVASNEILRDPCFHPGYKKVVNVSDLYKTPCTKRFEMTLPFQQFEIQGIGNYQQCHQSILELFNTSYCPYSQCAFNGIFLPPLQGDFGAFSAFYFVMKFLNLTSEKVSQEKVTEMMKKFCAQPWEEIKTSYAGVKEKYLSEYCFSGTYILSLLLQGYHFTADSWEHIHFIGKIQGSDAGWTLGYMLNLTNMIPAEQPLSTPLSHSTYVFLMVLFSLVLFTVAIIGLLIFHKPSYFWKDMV

B1: SRF360-C (antibody, V domains shown)
VH: EVQLVESGGGLVKPGGSLRLSCAASGFTFSSYRMNWVRQAPGKGLEWVSSISSSSSSIWYADSVKGRFTISRDNAKNSLYLQMNSLRAEDTAVYYCAKGPRYDSSGYRWRYGMDVWGQGTTVTVSS
VL: DIQMTQSPSSLSASVGDRVTITCRASQSISSYLNWYQQKPGKAPKLLIYAASSLQSGVPSRFSGSGSGTDFTLTISSLQPEDFATYYCQQLYVDPPWTFGGGTKVEIKR
B2: SRF365-C (antibody, V domains shown)
VH: QVQLVQSGAEVKKPGSSVKVSCKASGGTFSDKAISWVRQAPGQGLEWMGSILPIFGTANYAQKFQGRVTITADESTSTAYMELSSLRSEDTAVYYCAREAGYYRYRYFDLWGRGTLVTVSS
VL: EIVMTQSPATLSVSPGERATLSCRASQSVSSNLAWYQQKPGQAPRLLIYGASTRATGIPARFSGSGSGTEFTLTISSLQSEDFAVYYCQQHALWPLTFGGGTKVEIKR
B3: SRF367-C (antibody, V domains shown)
VH: QVQLVQSGAEVKKPGSSVKVSCKASGGTFSSEGISWVRQAPGQGLEWMGSILPIFGTANYAQKFQGRVTITADESTSTAYMELSSLRSEDTAVYYCAREAGYYRYRYFDLWGKGTLVTVSS
VL: EIVMTQSPATLSVSPGERATLSCRASQSVSSNLAWYQQKPGQAPRLLIYGASTRATGIPARFSGSGSGTEFTLTISSLQSEDFAVYYCQQHALWPLTFGGGTKVEIKR
B4: SRF360-C (antibody, V domains shown)
VH: EVQLVESGGGLVKPGGSLRLSCAASGFTFSSYRMNWVRQAPGKGLEWVSSISSSSSSIWYADSVKGRFTISRDNAKNSLYLQMNSLRAEDTAVYYCAKGPRYDSSGYRWRYGMDVWGQGTTVTVSS
VL: DIQMTQSPSSLSASVGDRVTITCRASQSISSYLNWYQQKPGKAPKLLIYAASSLQSGVPSRFSGSGSGTDFTLTISSLQPEDFATYYCQQLYVDPPWTFGGGTKVEIKR
B5: SRF370-C (antibody, V domains shown)
VH: QVQLVQSGAEVKKPGSSVKVSCKASGGTFSTYAIGWVRQAPGQGLEWMGGIIPAFGTANYAQKFQGRVTITADESTSTAYMELSSLRSEDTAVYYCARDPVRRSPFDIWGQGTMVTVSS
VL: EIVLTQSPATLSLSPGERATLSCRASQSVSSYLAWYQQKPGQAPRLLIYDSSNRATGIPARFSGSGSGTDFTLTISSLEPEDFAVYYCQQSFLWPRTFGGGTKVEIKR
B6: SRF365-C (antibody, V domains shown)
VH: QVQLVQSGAEVKKPGSSVKVSCKASGGTFSDKAISWVRQAPGQGLEWMGSILPIFGTANYAQKFQGRVTITADESTSTAYMELSSLRSEDTAVYYCAREAGYYRYRYFDLWGRGTLVTVSS
VL: EIVMTQSPATLSVSPGERATLSCRASQSVSSNLAWYQQKPGQAPRLLIYGASTRATGIPARFSGSGSGTEFTLTISSLQSEDFAVYYCQQHALWPLTFGGGTKVEIKR
B7: SRF367-C (antibody, V domains shown)
VH: QVQLVQSGAEVKKPGSSVKVSCKASGGTFSSEGISWVRQAPGQGLEWMGSILPIFGTANYAQKFQGRVTITADESTSTAYMELSSLRSEDTAVYYCAREAGYYRYRYFDLWGKGTLVTVSS
VL: EIVMTQSPATLSVSPGERATLSCRASQSVSSNLAWYQQKPGQAPRLLIYGASTRATGIPARFSGSGSGTEFTLTISSLQSEDFAVYYCQQHALWPLTFGGGTKVEIKR

The target of one experiment is T1, human CD39 (ectonucleoside triphosphate …). In words: MSD equilibrium; Fab.
B1 returned a Kd of 0.044 nM.
Same read-out and setting: the result for B2 reads 0.051 nM.
Same read-out and setting: the same measure for B3: 0.24 nM.

The next experiment shares this target. In words: ForteBio (BLI); IgG, monovalent.
B4 gave a Kd of 0.772 nM.
As for B5, binding was characterised by a dissociation constant (Kd) of 2.59 nM.
B6 gave a Kd of 0.556 nM.
Same read-out and setting: the result for B7 reads 1.57 nM.
